# Source: PMC11698656
# How the values were obtained:
# [1] = biological target: derived human TRPV6 (C157, M378, M681) (human); assay: cryo-EM structure
# [2] = biological target: ancestral human TRPV6 (R157, V378, T681) (human); assay: cryo-EM structure
substance,measurement,setting,value
"derived human TRPV6 (C157, M378, M681) (natural protein)",stoichiometry N,[1],4
endogenous calmodulin (CaM) (from UniProt P0DP23 1-149) (natural protein),stoichiometry N (CaM per TRPV6 tetramer),[2],1
"ancestral human TRPV6 (R157, V378, T681) (natural protein)",stoichiometry N,[2],4 subunits
